Columns and labels:
[1] = biological target: the molecule itself; assay: ion exchange and size-exclusion chromatography; self-association, RNA-mediated
[2] = biological target: the molecule itself; assay: size-exclusion chromatography; self-association, RNA-mediated
[3] = biological target: the molecule itself; assay: size-exclusion chromatography (self-association)

Protein	binding result [2]	other results
His-tagged mCherry(1-232)-3×Ala linker-A3H-HapII(1-183), wild-type (enzyme, range 1-232; Purified from E. coli with RNase A treatment; also called wild-type mCherry-A3H; mCherry-A3Hwt; not shown: N-terminal His tag from the pRSFDuet-1 vector and engineered HRV 3C protease site upstream of mCherry; mCherry residues 1-232, amplified from pRSETB-mCherry (Shaner et al. 2004)) AAAMALLTAETFRLQFNNKRRLRRPYYPRKALLCYQLTPQNGSTPTRGYFENKKKCHAEICFINEIKSMGLDETQCYQVTCYLTWSPCSSCAWELVDFIKAHDHLNLRIFASRLYYHWCKPQQDGLRLLCGSQVPVEVMGFPEFADCWENFVDHEKPLSFNPYKMLEELDKNSRAIKRRLDRIKQS		binding result [1]: binds
mCherry-A3H-K52E (enzyme, range 1-232; His tag present in size-exclusion chromatography; Crystal holds two A3H monomers bridged by duplex RNA; also called mCherry-K52E; pdb 6BOB; not shown: N-terminal His tag from the pRSFDuet-1 vector and HRV 3C protease site; tag removed with 3C proteas; mCherry residues 1-232, amplified from pRSETB-mCherry) AAAMALLTAETFRLQFNNKRRLRRPYYPRKALLCYQLTPQNGSTPTRGYFENKKECHAEICFINEIKSMGLDETQCYQVTCYLTWSPCSSCAWELVDFIKAHDHLNLRIFASRLYYHWCKPQQDGLRLLCGSQVPVEVMGFPEFADCWENFVDHEKPLSFNPYKMLEELDKNSRAIKRRLDRIKQS	binds	
mCherry-A3H-E56A-W115A-R175/6E (enzyme, range 1-232; E56A added to prevent E. coli toxicity; preparation lacks RNA; also called W115A/R175/6E with E56A; not shown: N-terminal His tag from the pRSFDuet-1 vector and HRV 3C protease site; mCherry residues 1-232, amplified from pRSETB-mCherry) AAAMALLTAETFRLQFNNKRRLRRPYYPRKALLCYQLTPQNGSTPTRGYFENKKKCHAAICFINEIKSMGLDETQCYQVTCYLTWSPCSSCAWELVDFIKAHDHLNLRIFASRLYYHACKPQQDGLRLLCGSQVPVEVMGFPEFADCWENFVDHEKPLSFNPYKMLEELDKNSRAIKEELDRIKQS		binding result [3]: no binding
mCherry-A3H-E56A-K52E (enzyme, range 1-232; Used in size-exclusion chromatography and in the second crystal structure (6BBO); also called mCherry-A3H-K52E-E56A; A3H-K52E-E56A; not shown: N-terminal His tag from the pRSFDuet-1 vector and HRV 3C protease site; crystallized by similar met; mCherry residues 1-232, amplified from pRSETB-mCherry) AAAMALLTAETFRLQFNNKRRLRRPYYPRKALLCYQLTPQNGSTPTRGYFENKKECHAAICFINEIKSMGLDETQCYQVTCYLTWSPCSSCAWELVDFIKAHDHLNLRIFASRLYYHWCKPQQDGLRLLCGSQVPVEVMGFPEFADCWENFVDHEKPLSFNPYKMLEELDKNSRAIKRRLDRIKQS	binds	
mCherry-A3H-E56A (enzyme, range 1-232; Catalytic mutant; also called E56A catalytic mutant; not shown: N-terminal His tag from the pRSFDuet-1 vector and HRV 3C protease site; mCherry residues 1-232, amplified from pRSETB-mCherry) AAAMALLTAETFRLQFNNKRRLRRPYYPRKALLCYQLTPQNGSTPTRGYFENKKKCHAAICFINEIKSMGLDETQCYQVTCYLTWSPCSSCAWELVDFIKAHDHLNLRIFASRLYYHWCKPQQDGLRLLCGSQVPVEVMGFPEFADCWENFVDHEKPLSFNPYKMLEELDKNSRAIKRRLDRIKQS	binds	

— patent US20200131496A1 (REGENTS OF THE UNIVERSITY OF MINNESOTA, published 2020)
